Tests used:
[1] = biological target: T1, IcmW (L. pneumophila (Philadelphia-1), UniProt Q5ZS31 1-151); test: crystal structure
T1 sequence: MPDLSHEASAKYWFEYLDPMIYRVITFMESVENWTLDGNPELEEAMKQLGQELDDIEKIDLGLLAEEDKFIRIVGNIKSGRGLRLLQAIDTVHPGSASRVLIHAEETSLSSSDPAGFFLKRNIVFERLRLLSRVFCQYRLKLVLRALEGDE

[2] = biological target: T2, DotN(7–214) (L. pneumophila (Philadelphia-1), UniProt Q5ZYB7 7-214); test: crystal structure
T2 sequence: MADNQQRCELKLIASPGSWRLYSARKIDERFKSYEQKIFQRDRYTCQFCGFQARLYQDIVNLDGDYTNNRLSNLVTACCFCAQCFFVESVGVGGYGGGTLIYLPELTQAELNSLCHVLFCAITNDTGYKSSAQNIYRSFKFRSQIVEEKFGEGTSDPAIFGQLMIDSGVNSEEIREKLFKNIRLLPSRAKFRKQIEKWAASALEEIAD

B1: DotL(656–783) (domain or fragment)
chain: GQNEPEPVEDIVEEEVEGALTIFSKLRIDPNAPPILVADKEVFSEPLLPINETRNQMITIERLAGAKDKYAGTVANELIKDFQIATSYPPEERDVIDVQELTGIIRDLSAKISAEREKANKKAAEELT
[1]
  binding result: binds

B2: DotL(590–659) (domain or fragment)
chain: VEPPPDDYLMKLQKQLASFQSILESGDLSINKAVENEEITLISKALKESTIVEPIERGVAALIAFHGQNE
[2]
  binding result: binds

Reference: article PMC6497169 (Nature microbiology, 2017)
